Our source for the Kd values is the Immune Epitope Database (IEDB).

Some results are limits rather than exact numbers.

Common to all, as to test: IEDB peptide-MHC binding, purified MHC/competitive/radioactivity; filed as Kd, often an IC50 or EC50 that approximates it; ≥ and ≤ were set here for values at or beyond the usual limits of such assays
For test [1], the target named is HLA-A*31:01.
For test [2], the target named is HLA-A*03:01.
Test [3] addresses HLA-A*33:01.
The target of test [4] is HLA-A*68:01.
For test [5], the target named is HLA-A*11:01.
[6] abbreviates: source organism: Vaccinia virus WR.
Where [7] appears, read: source organism: SARS coronavirus Tor2.
The mark [8] stands for this setting: source organism: Dengue virus 2 Jamaica/1409/1983.
The mark [9] stands for this setting: source organism: Dengue virus 4 Dominica/814669/1981.
Setting [10] is: source organism: Dengue virus 3 Singapore/8120/1995.
[11] abbreviates: source organism: Dengue virus 3 Martinique/1243/1999.
Setting [12] is: source organism: Dengue virus 1 Brazil/97-11/1997.

Turning to AATIQTPTK, the dissociation constant Kd is 137 nM in test [1] (setting [6]); 4120 nM in test [2] (setting [6]); 1260 nM in test [3] (setting [6]); 1670 nM in test [4] (setting [6]); 9.51 nM in test [5] (setting [6]).
As for AAYFVGYLK, the Kd in test [1] (setting [7]) came to 178 nM; in test [2] (setting [7]) it was 3.9 nM; in test [3] (setting [7]), 5550 nM; in test [4] (setting [7]) it was 3.19 nM; in test [5] (setting [7]) it was 3.19 nM.
With AIFKLTYQNK, the dissociation constant (Kd) in test [2] (setting [8]) is 41.4 nM; in test [5] (setting [8]) it was 57.5 nM.
For the sequence AIITPVVFY, the Kd is at least 10000 nM in test [1] (setting [6]); 409 nM in test [2] (setting [6]); at least 45500 nM in test [3] (setting [6]); 1470 nM in test [4] (setting [6]); 0.362 nM in test [5] (setting [6]).
The like results for AIITPVVFYR were, in that order, 11.6 nM, 3700 nM, 311 nM, 1.72 nM and 11.3 nM.
AIKILIGFRK: the Kd in test [2] (setting [9]) worked out at 215 nM; in test [5] (setting [9]) it was 432 nM.
With AISDYDYYR, the Kd came out at 26 nM in test [1] (setting [7]); 86.5 nM in test [2] (setting [7]); 490 nM in test [3] (setting [7]); 118 nM in test [4] (setting [7]); 65 nM in test [5] (setting [7]).
For the sequence ALTPPVSDLK, the equilibrium dissociation constant (Kd) in test [2] (setting [9]) came out at 86.9 nM.
Consider ASLKNTISK, for which the Kd in test [1] (setting [6]) is 1800 nM; in test [2] (setting [6]) it was 6.45 nM; in test [3] (setting [6]), at least 77700 nM; in test [4] (setting [6]) it was 3750 nM; in test [5] (setting [6]), 5.21 nM.
With ASTTENAAY, the equilibrium dissociation constant (Kd) in test [1] (setting [6]) is at least 71400 nM; in test [2] (setting [6]), 2170 nM; in test [3] (setting [6]), 3880 nM; in test [4] (setting [6]), 2420 nM; in test [5] (setting [6]), 307 nM.
Consider ATLAFHLTSR, for which the Kd in test [1] (setting [10]) stood at 2.69 nM; in test [4] (setting [10]), 50.9 nM.
With ATTVITPMLR, the Kd in test [1] (setting [11]) worked out at 163 nM; in test [4] (setting [11]), 47.2 nM; in test [5] (setting [11]) it was 222 nM.
As for AVMYMGTLSY, the Kd in test [1] (setting [7]) is 3200 nM; in test [2] (setting [7]) it was 7.67 nM; in test [3] (setting [7]), 10800 nM; in test [4] (setting [7]), 2580 nM; in test [5] (setting [7]), 7.78 nM.
As to AVNTPVSMTY, the Kd in test [1] (setting [6]) was 7440 nM; in test [2] (setting [6]), 71.5 nM; in test [3] (setting [6]), at least 70000 nM; in test [4] (setting [6]), 4660 nM; in test [5] (setting [6]) it was 20.7 nM.
AVRAFLLRHY: the Kd is 5240 nM in test [1] (setting [6]); 862 nM in test [2] (setting [6]); at least 70000 nM in test [3] (setting [6]); at least 29500 nM in test [4] (setting [6]); 1070 nM in test [5] (setting [6]).
With CICYGSYSLY, the Kd turned out to be 4390 nM in test [1] (setting [6]); 0.434 nM in test [2] (setting [6]); 2040 nM in test [3] (setting [6]); 1580 nM in test [4] (setting [6]); 341 nM in test [5] (setting [6]).
Regarding CIPSRSKMLK, the Kd came out at 64.5 nM in test [1] (setting [6]); 1.09 nM in test [2] (setting [6]); 63.2 nM in test [3] (setting [6]); 27.9 nM in test [4] (setting [6]); 4.27 nM in test [5] (setting [6]).
For CVFAYVGCY, the Kd in test [1] (setting [7]) is 11900 nM; in test [2] (setting [7]) it was 19200 nM; in test [3] (setting [7]), at least 20600 nM; in test [4] (setting [7]) it was 4120 nM; in test [5] (setting [7]) it was at least 27500 nM.
Take DAIDGEYRLR: the dissociation constant (Kd) in test [3] (setting [8]) is 246 nM; in test [4] (setting [8]) it was 17.1 nM.
Take DFSKSTSPTR: the Kd is 278 nM in test [1] (setting [6]); 2720 nM in test [2] (setting [6]); 1040 nM in test [3] (setting [6]); 112 nM in test [4] (setting [6]); 4490 nM in test [5] (setting [6]).
For DISKLTNFK, the Kd in test [1] (setting [6]) is 5480 nM; in test [2] (setting [6]), 781 nM; in test [3] (setting [6]) it was 48 nM; in test [4] (setting [6]) it was 1.21 nM; in test [5] (setting [6]), 338 nM.
Turning to DIVNEHDIKY, the Kd is at least 37200 nM in test [1] (setting [6]); 7030 nM in test [2] (setting [6]); at least 46100 nM in test [3] (setting [6]); 4610 nM in test [4] (setting [6]); 12600 nM in test [5] (setting [6]).
With DLTALLSCIR, the Kd stood at 510 nM in test [1] (setting [6]); 13200 nM in test [2] (setting [6]); 76.8 nM in test [3] (setting [6]); 10.9 nM in test [4] (setting [6]); 1560 nM in test [5] (setting [6]).
Regarding DTMTYKCPR, the Kd in test [1] (setting [12]) was 4880 nM; in test [3] (setting [12]), 6.64 nM; in test [4] (setting [12]) it was 67.1 nM.
For the sequence DVFHLYLQY, the Kd came out at 4240 nM in test [1] (setting [7]); 5470 nM in test [2] (setting [7]); 5450 nM in test [3] (setting [7]); 188 nM in test [4] (setting [7]); 10600 nM in test [5] (setting [7]).
With DVLEIINDK, the Kd in test [1] (setting [6]) was at least 53300 nM; in test [2] (setting [6]) it was at least 53500 nM; in test [3] (setting [6]) it was 719 nM; in test [4] (setting [6]) it was 720 nM; in test [5] (setting [6]), 4580 nM.
